In paper PMC9352680, “A comprehensive thermodynamic model for RNA binding by the Saccharomyces cerevisiae Pumilio protein PUF4”:

T1: PUF4 RNA-binding domain (Saccharomyces cerevisiae, UniProt P25339 537-888)
T1 sequence: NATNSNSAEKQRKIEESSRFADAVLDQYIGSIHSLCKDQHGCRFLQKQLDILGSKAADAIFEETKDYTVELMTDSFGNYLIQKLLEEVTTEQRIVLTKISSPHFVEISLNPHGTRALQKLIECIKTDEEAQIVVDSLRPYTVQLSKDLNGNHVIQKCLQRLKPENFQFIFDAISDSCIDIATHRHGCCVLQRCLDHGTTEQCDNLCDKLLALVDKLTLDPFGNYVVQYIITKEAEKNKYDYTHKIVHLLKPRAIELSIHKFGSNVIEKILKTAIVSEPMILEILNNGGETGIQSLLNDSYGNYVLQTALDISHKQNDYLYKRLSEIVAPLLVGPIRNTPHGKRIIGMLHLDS


Target: T1, PUF4 RNA-binding domain
Test: Mg; RNA-MaP; 20 mM Na-HEPES pH 7.4, 30 mM KOAc, 0.75 mM MgCl2, 0.1% Tween-20, 5% glycerol, 0.1 mg/mL BSA, 2 mM DTT; 25 C; 0.0125-409.6 nM protein
Conditions: tags: N-His6-TEV cleaved; C-SNAP kept, Cy3B-labelled; label: tethered on chip by stalled RNA polymerase

Binder | Kd [nM]
UCUCUUUGUAUGGCAUUCUCUU (ssRNA) [Ic_S1_P5E.1_K5.1_C5.1_H5.1_A5.1_[T6G]_[A7G]_F5.1_[T8C]_[T9A]_[A10T]_T5.1] | 1040
UCUCUUUGUAACGGUCUCUCUU (ssRNA) [Ic_S1_P5E.1_K5.1_C5.1_H5.1_A5.1_[T5A]_[T6C]_[A7G]_F5.1_[T8G]_[A10C]_T5.1] | > 2300
UCUCUUUGUAAACUGUUCUCUU (ssRNA) [Ic_S1_P5E.1_K5.1_C5.1_H5.1_A5.1_[T5A]_[T6A]_[A7C]_F5.1_[T9G]_[A10T]_T5.1] | 12.6
UCUCUUUGUAUAUCAUCUCUU (ssRNA) [Ic_S1_P4E.1_K4.1_C4.1_H4.1_A4.1_F4.1_[T8C]_T4.1] | 8.57
UCUCUUUGUAAACUAUUCUCUU (ssRNA) [Ic_S1_P5E.1_K5.1_C5.1_H5.1_A5.1_[T5A]_[T6A]_[A7C]_F5.1_[T9A]_[A10T]_T5.1] | 2.36
UCUCUUUGUAUUUCGUUCUCUU (ssRNA) [Ic_S1_P5E.1_K5.1_C5.1_H5.1_A5.1_[A7T]_F5.1_[T8C]_[T9G]_[A10T]_T5.1] | 370
UCUCUUUGUAAAUCACUCUCUU (ssRNA) [Ic_S1_P5E.1_K5.1_C5.1_H5.1_A5.1_[T5A]_[T6A]_[A7T]_F5.1_[T8C]_[T9A]_[A10C]_T5.1] | 63.1
UCUCUUUGUAAGUUUGUCUCUU (ssRNA) [Ic_S1_P5E.1_K5.1_C5.1_H5.1_A5.1_[T5A]_[T6G]_[A7T]_F5.1_[A10G]_T5.1] | 697
UCUCUUUGUACUUCAUUCUCUU (ssRNA) [Ic_S1_P5E.1_K5.1_C5.1_H5.1_A5.1_[T5C]_[A7T]_F5.1_[T8C]_[T9A]_[A10T]_T5.1] | 75.9
UCUCUUUGUAUUUGCGUCUCUU (ssRNA) [Ic_S1_P5E.1_K5.1_C5.1_H5.1_A5.1_[A7T]_F5.1_[T8G]_[T9C]_[A10G]_T5.1] | 659
UCUCUUGUUAUAUAUCUCUU (ssRNA) [Ib_S1_P3E.1_K3.1_C3.1_H3.1_[T1G]_[G2T]_A3.1_F3.1_T3.1] | 47
UCUCUUUGUAUGGUAAUCUCUU (ssRNA) [Ic_S1_P5E.1_K5.1_C5.1_H5.1_A5.1_[T6G]_[A7G]_F5.1_[T9A]_T5.1] | 32.1
UCUCUUUGUAACCCAUUCUCUU (ssRNA) [Ic_S1_P5E.1_K5.1_C5.1_H5.1_A5.1_[T5A]_[T6C]_[A7C]_F5.1_[T8C]_[T9A]_[A10T]_T5.1] | 711
UCUCUUUGUACGUCAUUCUCUU (ssRNA) [Ic_S1_P5E.1_K5.1_C5.1_H5.1_A5.1_[T5C]_[T6G]_[A7T]_F5.1_[T8C]_[T9A]_[A10T]_T5.1] | 96.5
UCUCUUUGUACACCAUUCUCUU (ssRNA) [Ic_S1_P5E.1_K5.1_C5.1_H5.1_A5.1_[T5C]_[T6A]_[A7C]_F5.1_[T8C]_[T9A]_[A10T]_T5.1] | 16.1
UCUCUUUGUAAUCCUUUCUCUU (ssRNA) [Ic_S1_P5E.1_K5.1_C5.1_H5.1_A5.1_[T5A]_[A7C]_F5.1_[T8C]_[A10T]_T5.1] | 697

Binder | Kd [nM]
UCUCUUUGUAAUAUAUUCUCUU (ssRNA) [Ic_S1_P5E.1_K5.1_C5.1_H5.1_A5.1_[T5A]_F5.1_[T9A]_[A10T]_T5.1] | 2.21
UCUCUUUGUAUCUAUCUCUCUU (ssRNA) [Ic_S1_P5E.1_K5.1_C5.1_H5.1_A5.1_[T6C]_[A7T]_F5.1_[T8A]_[A10C]_T5.1] | 41.5
UCUCUUUGUAAAACGGUCUCUU (ssRNA) [Ic_S1_P5E.1_K5.1_C5.1_H5.1_A5.1_[T5A]_[T6A]_F5.1_[T8C]_[T9G]_[A10G]_T5.1] | 625
UCUCUUGGUCUAUAUCUCUU (ssRNA) [Ib_S1_P3E.1_K3.1_C3.1_H3.1_[T1G]_[A4C]_A3.1_F3.1_T3.1] | > 2300
UCUCUUUGUAAGUAUAUCUCUU (ssRNA) [Ic_S1_P5E.1_K5.1_C5.1_H5.1_A5.1_[T5A]_[T6G]_[A7T]_F5.1_[T8A]_T5.1] | 95
UCUCUUUGUACUCCCAUCUCUU (ssRNA) [Ic_S1_P5E.1_K5.1_C5.1_H5.1_A5.1_[T5C]_[A7C]_F5.1_[T8C]_[T9C]_T5.1] | 1300
UCUCUUUGUAUAAAUCUCUU (ssRNA) [Ia_S1_P3E.1_K3.1_C3.1_H3.1_A3.1_F3.1_[T7A]_T3.1] | 50.4
UCUCUUUGUAACGACUUCUCUU (ssRNA) [Ic_S1_P5E.1_K5.1_C5.1_H5.1_A5.1_[T5A]_[T6C]_[A7G]_F5.1_[T8A]_[T9C]_[A10T]_T5.1] | > 2300
UCUCUUUGUACCAGCUUCUCUU (ssRNA) [Ic_S1_P5E.1_K5.1_C5.1_H5.1_A5.1_[T5C]_[T6C]_F5.1_[T8G]_[T9C]_[A10T]_T5.1] | 747
UCUCUUUGUACCCUAGUCUCUU (ssRNA) [Ic_S1_P5E.1_K5.1_C5.1_H5.1_A5.1_[T5C]_[T6C]_[A7C]_F5.1_[T9A]_[A10G]_T5.1] | 4.32
UCUCUUUGUACAAUUCUCUCUU (ssRNA) [Ic_S1_P5E.1_K5.1_C5.1_H5.1_A5.1_[T5C]_[T6A]_F5.1_[A10C]_T5.1] | 12.1
UCUCUUAGCAUAUAUCUCUU (ssRNA) [Ib_S1_P3E.1_K3.1_C3.1_H3.1_[T1A]_[T3C]_A3.1_F3.1_T3.1] | > 2300
UCUCUUGGCAUAUAUCUCUU (ssRNA) [Ib_S1_P3E.1_K3.1_C3.1_H3.1_[T1G]_[T3C]_A3.1_F3.1_T3.1] | > 2300
UCUCUUUGUAAACUAAUCUCUU (ssRNA) [Ic_S1_P5E.1_K5.1_C5.1_H5.1_A5.1_[T5A]_[T6A]_[A7C]_F5.1_[T9A]_T5.1] | 3.01
UCUCUUUGUACCAGUGUCUCUU (ssRNA) [Ic_S1_P5E.1_K5.1_C5.1_H5.1_A5.1_[T5C]_[T6C]_F5.1_[T8G]_[A10G]_T5.1] | 470
UCUCUUUGUAUACCCUUCUCUU (ssRNA) [Ic_S1_P5E.1_K5.1_C5.1_H5.1_A5.1_[T6A]_[A7C]_F5.1_[T8C]_[T9C]_[A10T]_T5.1] | 103
